Assay results reported in US20080138349A1 (MacroGenics, published 2008).

T1: FcγRIIB (UniProt P31994 43-217, limits assumed)
T1 construct: also called CD32B
T1 sequence (looked up): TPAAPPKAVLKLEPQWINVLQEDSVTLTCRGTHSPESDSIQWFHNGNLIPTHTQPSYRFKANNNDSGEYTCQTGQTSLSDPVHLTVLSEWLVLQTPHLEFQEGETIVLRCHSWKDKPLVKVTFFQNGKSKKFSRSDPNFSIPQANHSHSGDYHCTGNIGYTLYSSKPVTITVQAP

T2: FcγRIIB-Fc fusion protein, soluble dimeric: extracellular domain of FcγRIIB fused to the hinge-CH2-CH3 domain … (human, UniProt P31994 43-217, limits assumed)
T2 construct: extracellular domain; also called FcRIIB-Fc; FcR2B; not shown: human IgG2 hinge-CH2-CH3
T2 sequence (looked up): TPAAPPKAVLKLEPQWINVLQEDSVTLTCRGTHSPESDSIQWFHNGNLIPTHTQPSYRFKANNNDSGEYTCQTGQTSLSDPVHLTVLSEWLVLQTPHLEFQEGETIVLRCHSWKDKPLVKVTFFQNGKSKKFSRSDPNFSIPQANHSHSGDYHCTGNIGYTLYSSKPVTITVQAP


Legend:
FcγRIIIA [1] = target: T3, FcγRIIIA (UniProt P08637 17-208, limits assumed); experiment: ELISA
T3 construct: also called CD16A
T3 sequence (P08637 17-208 limits assumed): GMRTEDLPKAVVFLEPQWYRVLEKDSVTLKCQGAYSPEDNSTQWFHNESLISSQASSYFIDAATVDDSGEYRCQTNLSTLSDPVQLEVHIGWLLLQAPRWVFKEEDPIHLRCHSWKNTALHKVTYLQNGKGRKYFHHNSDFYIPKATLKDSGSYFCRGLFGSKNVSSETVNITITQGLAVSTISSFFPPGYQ

FcγRIIB = target: T1, FcγRIIB; experiment: ELISA
FcγRIIIA [2] = target: T3, FcγRIIIA; experiment: ELISA; remark: listed apart in the source
FcγRIIIA [3] = target: T3, FcγRIIIA; experiment: ELISA; remark: listed apart in the source
[4] = target: T4, soluble monomeric FcγRIIIA, the extracellular region of FcγRIIIA joined to the linker-AVITAG sequence (UniProt P08637 17-208, limits assumed); experiment: BIAcore
T4 construct: extracellular domain; also called FcRIIIA; FcR3A
T4 sequence (P08637 17-208 limits assumed): as above

[5] = target: T2, FcγRIIB-Fc fusion protein, soluble …; experiment: BIAcore

| Binder | ELISA binding increase vs wt (FcγRIIIA [1]) [x] | ELISA binding increase vs wt (FcγRIIB) [x] | ELISA IIIA binding vs wt (FcγRIIIA [2]) [X] | ELISA, OD (FcγRIIIA [3]) [OD] | Kd [4] [nM] | Kd [5] [nM] | koff [5] [s⁻¹] | koff [4] [s⁻¹] |
| --- | --- | --- | --- | --- | --- | --- | --- | --- |
| ch4-4-20 V348M, K334N, F275I, Y202M, K147T (antibody) ASTKGPSVFPLAPSSKSTSGGTAALGCLVTDYFPEPVTVSWNSGALTSGVHTFPAVLQSSGLYSLSSVVTVPSSSLGTQTYICNMNHKPSNTKVDKKVEPKSCDKTHTCPPCPAPELLGGPSVFLFPPKPKDTLMISRTPEVTCVVVDVSHEDPEVKINWYVDGVEVHNAKTKPREEQYNSTYRVVSVLTVLHQDWLNGKEYKCKVSNKALPAPIENTISKAKGQPREPQMYTLPPSRDELTKNQVSLTCLVKGFYPSDIAVEWESNGQPENNYKTTPPVLDSDGSFFLYSKLTVDKSRWQQGNVFSCSVMHEALHNHYTQKSLSLSPGK | 0.5 | 0.75 | – | – | – | – | – | – |
| ch4-4-20 K317N, F423-deleted (antibody) EPKSCDKTHTCPPCPAPELLGGPSVFLFPPKPKDTLMISRTPEVTCVVVDVSHEDPEVKFNWYVDGVEVHNAKTKPREEQYNSTYRVVSVLTVLHQDWLNGNEYKCKVSNKALPAPIEKTISKAKGQPREPQVYTLPPSREEMTKNQVSLTCLVKGFYPSDIAVEWESNGQPENNYKTTPPVLDSDGSFFLYSKLTVDKSRWQQGNVSCSVMHEALHNHYTQKSLSLSPGK | – | 7 | – | – | – | – | – | – |
| ch4-4-20 T215P, K274N, A287G, K334N, L365V, P396L (antibody) PEPKSCDKTHTCPPCPAPELLGGPSVFLFPPKPKDTLMISRTPEVTCVVVDVSHEDPEVNFNWYVDGVEVHNGKTKPREEQYNSTYRVVSVLTVLHQDWLNGKEYKCKVSNKALPAPIENTISKAKGQPREPQVYTLPPSRDELTKNQVSVTCLVKGFYPSDIAVEWESNGQPENNYKTTPLVLDSDGSFFLYSKLTVDKSRWQQGNVFSCSVMHEALHNHYTQKSLSLSPGK | – | 4 | – | – | – | – | – | – |
| ch4-4-20 K288N, A330S, P396L (antibody) EPKSCDKTHTCPPCPAPELLGGPSVFLFPPKPKDTLMISRTPEVTCVVVDVSHEDPEVKFNWYVDGVEVHNANTKPREEQYNSTYRVVSVLTVLHQDWLNGKEYKCKVSNKALPSPIEKTISKAKGQPREPQVYTLPPSREEMTKNQVSLTCLVKGFYPSDIAVEWESNGQPENNYKTTPLVLDSDGSFFLYSKLTVDKSRWQQGNVFSCSVMHEALHNHYTQKSLSLSPGK | – | – | 5 | 1 | – | – | – | – |
| ch4-4-20 D221E, D270E, V308A, Q311H, P396L, G402D (antibody) EPKSCEKTHTCPPCPAPELLGGPSVFLFPPKPKDTLMISRTPEVTCVVVDVSHEEPEVKFNWYVDGVEVHNAKTKPREEQYNSTYRVVSVLTALHHDWLNGKEYKCKVSNKALPAPIEKTISKAKGQPREPQVYTLPPSREEMTKNQVSLTCLVKGFYPSDIAVEWESNGQPENNYKTTPLVLDSDDSFFLYSKLTVDKSRWQQGNVFSCSVMHEALHNHYTQKSLSLSPGK | 3.6 | 0.1 | – | – | – | – | – | – |
| ch4-4-20 Y319F, P352L, P396L (antibody) EPKSCDKTHTCPPCPAPELLGGPSVFLFPPKPKDTLMISRTPEVTCVVVDVSHEDPEVKFNWYVDGVEVHNAKTKPREEQYNSTYRVVSVLTVLHQDWLNGKEFKCKVSNKALPAPIEKTISKAKGQPREPQVYTLLPSREEMTKNQVSLTCLVKGFYPSDIAVEWESNGQPENNYKTTPLVLDSDGSFFLYSKLTVDKSRWQQGNVFSCSVMHEALHNHYTQKSLSLSPGK | – | – | 3.5 | – | 125 | – | – | – |
| ch4-4-20 E293V, Q295E, A327T (antibody) EPKSCDKTHTCPPCPAPELLGGPSVFLFPPKPKDTLMISRTPEVTCVVVDVSHEDPEVKFNWYVDGVEVHNAKTKPRVEEYNSTYRVVSVLTVLHQDWLNGKEYKCKVSNKTLPAPIEKTISKAKGQPREPQVYTLPPSREEMTKNQVSLTCLVKGFYPSDIAVEWESNGQPENNYKTTPPVLDSDGSFFLYSKLTVDKSRWQQGNVFSCSVMHEALHNHYTQKSLSLSPGK | 0.4 | – | 1.4 | – | – | 86 | – | – |
| ch4-4-20 V379M (antibody) chain 1: not shown chain 2: DVVMTQTPLSLPVSLGDQASISCRSSQSLVHSNGNTYLRWYLQKPGQSPKVLIYKVSNRFSGVPDRFSGSGSGTDFTLKISRVEAEDLGVYFCSQSTHVPWTFGGGTKLEIKRTVAAPSVFIFPPSDEQLKSGTASVVCLLNNFYPREAKVQWKVDNALQSGNSQESVTEQDSKDSTYSLSSTLTLSKADYEKHKVYACEVTHQGLSSPVTKSFNRGEC | 2 | – | 2 | – | 160 | 70 | 0.1 | 0.167 |
| ch4-4-20 F243I, V379L (antibody) chain 1: not shown chain 2: DVVMTQTPLSLPVSLGDQASISCRSSQSLVHSNGNTYLRWYLQKPGQSPKVLIYKVSNRFSGVPDRFSGSGSGTDFTLKISRVEAEDLGVYFCSQSTHVPWTFGGGTKLEIKRTVAAPSVFIFPPSDEQLKSGTASVVCLLNNFYPREAKVQWKVDNALQSGNSQESVTEQDSKDSTYSLSSTLTLSKADYEKHKVYACEVTHQGLSSPVTKSFNRGEC | – | – | – | – | 99.7 | 120 | 0.113 | 0.105 |
| ch4-4-20 F243I, V379L, G420V (antibody) chain 1: EVKLDETGGGLVQPGRPMKLSCVASGFTFSDYWMNWVRQSPEKGLEWVAQIRNKPYNYETYYSDSVKGRFTISRDDSKSSVYLQMNNLRVEDMGIYYCTGSYYGMDYWGQGTSVTVSSASTKGPSVFPLAPSSKSTSGGTAALGCLVKDYFPEPVTVSWNSGALTSGVHTFPAVLQSSGLYSLSSVVTVPSSSLGTQTYICNVNHKPSNTKVDKKVEPKSCDKTHTCPPCPAPELLGGPSVFLIPPKPKDTLMISRTPEVTCVVVDVSHEDPEVKFNWYVDGVEVHNAKTKPREEQYNSTYRVVSVLTVLHQDWLNGKEYKCKVSNKALPAPIEKTISKAKGQPREPQVYTLPPSRDELTKNQVSLTCLVKGFYPSDIALEWESNGQPENNYKTTPPVLDSDGSFFLYSKLTVDKSRWQQVNVFSCSVMHEALHNHYTQKSLSLSPGK chain 2: DVVMTQTPLSLPVSLGDQASISCRSSQSLVHSNGNTYLRWYLQKPGQSPKVLIYKVSNRFSGVPDRFSGSGSGTDFTLKISRVEAEDLGVYFCSQSTHVPWTFGGGTKLEIKRTVAAPSVFIFPPSDEQLKSGTASVVCLLNNFYPREAKVQWKVDNALQSGNSQESVTEQDSKDSTYSLSSTLTLSKADYEKHKVYACEVTHQGLSSPVTKSFNRGEC | – | 3.5 | – | – | – | 93.4 | 0.101 | – |
| ch4-4-20 G316D, A378V, D399E (antibody) chain 1: EVKLDETGGGLVQPGRPMKLSCVASGFTFSDYWMNWVRQSPEKGLEWVAQIRNKPYNYETYYSDSVKGRFTISRDDSKSSVYLQMNNLRVEDMGIYYCTGSYYGMDYWGQGTSVTVSSASTKGPSVFPLAPSSKSTSGGTAALGCLVKDYFPEPVTVSWNSGALTSGVHTFPAVLQSSGLYSLSSVVTVPSSSLGTQTYICNVNHKPSNTKVDKKVEPKSCDKTHTCPPCPAPELLGGPSVFLFPPKPKDTLMISRTPEVTCVVVDVSHEDPEVKFNWYVDGVEVHNAKTKPREEQYNSTYRVVSVLTVLHQDWLNDKEYKCKVSNKALPAPIEKTISKAKGQPREPQVYTLPPSRDELTKNQVSLTCLVKGFYPSDIVVEWESNGQPENNYKTTPPVLESDGSFFLYSKLTVDKSRWQQGNVFSCSVMHEALHNHYTQKSLSLSPGK chain 2: DVVMTQTPLSLPVSLGDQASISCRSSQSLVHSNGNTYLRWYLQKPGQSPKVLIYKVSNRFSGVPDRFSGSGSGTDFTLKISRVEAEDLGVYFCSQSTHVPWTFGGGTKLEIKRTVAAPSVFIFPPSDEQLKSGTASVVCLLNNFYPREAKVQWKVDNALQSGNSQESVTEQDSKDSTYSLSSTLTLSKADYEKHKVYACEVTHQGLSSPVTKSFNRGEC | 1.5 | 14 | 1.5 | – | 72 | 46 | 0.06 | 0.117 |
| ch4-4-20 K334E, T359N, T366S (antibody) chain 1: EVKLDETGGGLVQPGRPMKLSCVASGFTFSDYWMNWVRQSPEKGLEWVAQIRNKPYNYETYYSDSVKGRFTISRDDSKSSVYLQMNNLRVEDMGIYYCTGSYYGMDYWGQGTSVTVSSASTKGPSVFPLAPSSKSTSGGTAALGCLVKDYFPEPVTVSWNSGALTSGVHTFPAVLQSSGLYSLSSVVTVPSSSLGTQTYICNVNHKPSNTKVDKKVEPKSCDKTHTCPPCPAPELLGGPSVFLFPPKPKDTLMISRTPEVTCVVVDVSHEDPEVKFNWYVDGVEVHNAKTKPREEQYNSTYRVVSVLTVLHQDWLNGKEYKCKVSNKALPAPIEETISKAKGQPREPQVYTLPPSRDELNKNQVSLSCLVKGFYPSDIAVEWESNGQPENNYKTTPPVLDSDGSFFLYSKLTVDKSRWQQGNVFSCSVMHEALHNHYTQKSLSLSPGK chain 2: DVVMTQTPLSLPVSLGDQASISCRSSQSLVHSNGNTYLRWYLQKPGQSPKVLIYKVSNRFSGVPDRFSGSGSGTDFTLKISRVEAEDLGVYFCSQSTHVPWTFGGGTKLEIKRTVAAPSVFIFPPSDEQLKSGTASVVCLLNNFYPREAKVQWKVDNALQSGNSQESVTEQDSKDSTYSLSSTLTLSKADYEKHKVYACEVTHQGLSSPVTKSFNRGEC | 1.5 | – | 1.5 | – | 55.2 | 72 | 0.11 | 0.128 |
| ch4-4-20 P247L, N421K (antibody) chain 1: not shown chain 2: DVVMTQTPLSLPVSLGDQASISCRSSQSLVHSNGNTYLRWYLQKPGQSPKVLIYKVSNRFSGVPDRFSGSGSGTDFTLKISRVEAEDLGVYFCSQSTHVPWTFGGGTKLEIKRTVAAPSVFIFPPSDEQLKSGTASVVCLLNNFYPREAKVQWKVDNALQSGNSQESVTEQDSKDSTYSLSSTLTLSKADYEKHKVYACEVTHQGLSSPVTKSFNRGEC | 3 | – | 3 | – | 62 | 66 | 0.065 | 0.108 |
